The source of these data is article PMC7754472, “RPW8.1 enhances the ethylene‐signaling pathway to feedback‐attenuate its mediated cell death and disease resistance in Arabidopsis”.

Data set [1] deals with T1, GST-ORA59 (Arabidopsis thaliana, UniProt Q9LND1 1-244). Briefly: EMSA; Chemiluminescent EMSA kit (Beyotime) EMSA/Gel-Shift binding buffer; salt, pH and temperature not stated. To be noted: protein: recombinant, tags: N-terminal GST (pGEX), blunt. A general note: Mobility shift assays separate free from complexed probe on a gel.
T1 sequence (Q9LND1 whole entry): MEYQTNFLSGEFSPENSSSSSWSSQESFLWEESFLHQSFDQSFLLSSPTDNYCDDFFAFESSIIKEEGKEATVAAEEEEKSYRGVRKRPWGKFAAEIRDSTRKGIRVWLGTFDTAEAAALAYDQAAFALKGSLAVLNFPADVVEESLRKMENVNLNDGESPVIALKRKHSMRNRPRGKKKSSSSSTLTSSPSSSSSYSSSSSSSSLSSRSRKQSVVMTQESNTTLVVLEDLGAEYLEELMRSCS
Data set [2] has as its target T1, GST-ORA59. Briefly: competition; 5-, 25-, 50-fold excess vs biotin-OBS1; Chemiluminescent EMSA kit (Beyotime) EMSA/Gel-Shift binding buffer; salt, pH and temperature not stated. As to conditions: protein: recombinant; tags: N-terminal GST (pGEX); blunt.
Data set [3] concerns the target T1, GST-ORA59. Briefly: competition; 5-, 25-, 50-fold excess vs biotin-OBS2; Chemiluminescent EMSA kit (Beyotime) EMSA/Gel-Shift binding buffer; salt, pH and temperature not stated. To be noted: protein: recombinant; tags: N-terminal GST (pGEX); blunt.

B1: OBS5 (dsDNA)
DNA 1: ATGTACATAGATTCCTCTATATTCACCTCGAGAGCTAAACAACTACTTTCAAAAA
DNA 2: TTTTTGAAAGTAGTTGTTTAGCTCTCGAGGTGAATATAGAGGAATCTATGTACAT
Consider B1, for which the binding result in data set [1] (label: 3' biotin) is listed as “binds”.

B2: OBS1 (dsDNA)
DNA 1: ACGTAATTCAATAATATTCTACGTAATTTAATACTCACGACAACTTGCATAT
DNA 2: ATATGCAAGTTGTCGTGAGTATTAAATTACGTAGAATATTATTGAATTACGT
B2: the binding result in data set [1] (label: 3' biotin (probe)) is “binds”.

B3: mutant competitor V (OBS1, T/A-rich motif mutant) (dsDNA)
DNA 1: ACGTAATTCAAGAAGATTCTACGTAATTCAAGACTCACGACAACTTGCATAT
DNA 2: ATATGCAAGTTGTCGTGAGTCTTGAATTACGTAGAATCTTCTTGAATTACGT
With B3, in data set [2], the binding result is reported as “no binding”.

B4: OBS3 (dsDNA)
DNA 1: TATGAGTCAATCTCTTGAATTGTCTTCATATAATTAAAACCACTCGTTAACTTGTTAA
DNA 2: TTAACAAGTTAACGAGTGGTTTTAATTATATGAAGACAATTCAAGAGATTGACTCATA
B4: the binding result in data set [1] (label: 3' biotin) is on record as “binds”.

B5: OBS2 (dsDNA)
DNA 1: TTGCATATAGATCCAACGATCTCCTCTTACCTAGAAAAAGAGAGAGTTGTTGACCCGTA
DNA 2: TACGGGTCAACAACTCTCTCTTTTTCTAGGTAAGAGGAGATCGTTGGATCTATATGCAA
As to B5, in data set [1] (label: 3' biotin (probe)), the binding result is “binds”.

B6: mutant competitor III (OBS2, BOX-W1 mutant) (dsDNA)
DNA 1: TTGCATATAGATCCAACGATCTCCTCTTACCTAGAAAAAGAGAGAGTTGTACACCCGTA
DNA 2: TACGGGTGTACAACTCTCTCTTTTTCTAGGTAAGAGGAGATCGTTGGATCTATATGCAA
In the case of B6, the binding result in data set [3] is “binds”.

B7: mutant competitor I (OBS2, T/A-rich motif mutant) (dsDNA)
DNA 1: TTGCAGACAGATCCAACGATCTCCTCTTACCTCGAAAAAGAGAGAGTTGTTGACCCGTA
DNA 2: TACGGGTCAACAACTCTCTCTTTTTCGAGGTAAGAGGAGATCGTTGGATCTGTCTGCAA
As for B7, in data set [3], the binding result was “no binding”.

B8: mutant competitor IV (OBS2, unnamed motif and TCT-motif mutant) (dsDNA)
DNA 1: TTGCATATAGATCCAACGATCTCGACTTACCTAGAAAAAGAGAGAGTTGTTGACCCGTA
DNA 2: TACGGGTCAACAACTCTCTCTTTTTCTAGGTAAGTCGAGATCGTTGGATCTATATGCAA
B8: in data set [3], the binding result is on record as “binds”.

B9: mutant competitor II (OBS2, GAG-motif mutant) (dsDNA)
DNA 1: TTGCATATAGATCCAACGATCTCCTCTTACCTAGAAAAAGACACAGTTGTTGACCCGTA
DNA 2: TACGGGTCAACAACTGTGTCTTTTTCTAGGTAAGAGGAGATCGTTGGATCTATATGCAA
For the molecule B9, the binding result in data set [3] was “binds”.

B10: OBS4 (dsDNA)
DNA 1: ACATAAAACTATTTAATATGGTTCCATCCTTCCATGTACATAGATTCCTCT
DNA 2: AGAGGAATCTATGTACATGGAAGGATGGAACCATATTAAATAGTTTTATGT
As to B10, in data set [1] (label: 3' biotin), the binding result is on record as “binds”.
